This is an account of results in doi:10.1101/2024.09.25.614871v2.

Substrate in data set [1]: O=C(O)C[C@H](O)C(=O)O
As to the kind of experiment: PK/LDH-coupled NADH consumption. In kind it is biochemical, Homo sapiens. As to conditions: 0.1 mM CoA, 7 mM MgCl2, pH 7.5, 30 °C.

Substrate in data set [2]: C=C(CC(=O)O)C(=O)O
As to the kind of experiment: PK/LDH-coupled NADH consumption. In kind it is biochemical, Homo sapiens. As to conditions: 0.1 mM CoA, 7 mM MgCl2, pH 7.5, 30 °C.

Substrate in the data set “purified protein”: CC(C)(COP(=O)(O)OP(=O)(O)OC[C@H]1O[C@@H](n2cnc3c(N)ncnc32)[C@H](O)[C@@H]1OP(=O)(O)O)[C@@H](O)C(=O)NCCC(=O)NCCSC(=O)C[C@H](O)C(=O)O
Description: purified protein. It is filed as biochemical, Sus scrofa. As to conditions: pH 7.5, 37 °C, 100 mM Tris.

B1: SUCL (ADP-forming), SUCLG1:SUCLA2 complex (Homo sapiens) (protein)
chain 1: not shown
chain 2: LSLHEYMSMELLQEAGVSVPKGYVAKSPDEAYAIAKKLGSKDVVIKAQVLAGGRGKGTFESGLKGGVKIVFSPEEAKAVSSQMIGKKLFTKQTGEKGRICNQVLVCERKYPRREYYFAITMERSFQGPVLIGSSHGGVNIEDVAAESPEAIIKEPIDIEEGIKKEQALQLAQKMGFPPNIVESAAENMVKLYSLFLKYDATMIEINPMVEDSDGAVLCMDAKINFDSNSAYRQKKIFDLQDWTQEDERDKDAAKANLNYIGLDGNIGCLVNGAGLAMATMDIIKLHGGTPANFLDVGGGATVHQVTEAFKLITSDKKVLAILVNIFGGIMRCDVIAQGIVMAVKDLEIKIPVVVRLQGTRVDDAKALIADSGLKILACDDLDEAARMVVKLSEIVTLAKQAHVDVKFQLPI
With B1, the Km was 21900 ± 5800 µM in data set [1] (0.6 mM ATP) and 19100 ± 2500 µM in data set [2] (0.6 mM ATP). The kcat in data set [1] (0.6 mM ATP) was 0.06 ± 0.01 s⁻¹; in data set [2] (0.6 mM ATP), 0.65 ± 0.08 s⁻¹.

B2: citrate synthase (CS) (Sus scrofa) (protein)
chain: ASSTNLKDILADLIPKEQARIKTFRQQHGNTVVGQITVDMMYGGMRGMKGLVYETSVLDPDEGIRFRGYSIPECQKMLPKAKGGEEPLPEGLFWLLVTGQIPTEEQVSWLSKEWAKRAALPSHVVTMLDNFPTNLHPMSQLSAAITALNSESNFARAYAEGIHRTKYWELIYEDCMDLIAKLPCVAAKIYRNLYREGSSIGAIDSKLDWSHNFTNMLGYTDAQFTELMRLYLTIHSDHEGGNVSAHTSHLVGSALSDPYLSFAAAMNGLAGPLHGLANQEVLVWLTQLQKEVGKDVSDEKLRDYIWNTLNSGRVVPGYGHAVLRKTDPRYTCQREFALKHLPHDPMFKLVAQLYKIVPNVLLEQGKAKNPWPNVDAHSGVLLQYYGMTEMNYYTVLFGVSRALGVLAQLIWSRALGFPLERPKSMSTDGLIKLVDSK
On to B2, for which the Km in “purified protein” was found to be 106 µM.

B3: SUCL (GDP-forming), SUCLG1:SUCLG2 complex (Homo sapiens) (protein)
chain 1: not shown
chain 2: LNLQEYQSKKLMSDNGVRVQRFFVADTANEALEAAKRLNAKEIVLKAQILAGGRGKGVFNSGLKGGVHLTKDPNVVGQLAKQMIGYNLATKQTPKEGVKVNKVMVAEALDISRETYLAILMDRSCNGPVLVGSPQGGVDIEEVAASNPELIFKEQIDIFEGIKDSQAQRMAENLGFVGPLKSQAADQITKLYNLFLKIDATQVEVNPFGETPEGQVVCFDAKINFDDNAEFRQKDIFAMDDKSENEPIENEAAKYDLKYIGLDGNIACFVNGAGLAMATCDIIFLNGGKPANFLDLGGGVKEAQVYQAFKLLTADPKVEAILVNIFGGIVNCAIIANGITKACRELELKVPLVVRLEGTNVQEAQKILNNSGLPITSAIDLED
Turning to B3, the Michaelis-Menten constant (Km) in data set [1] (0.6 mM GTP) stood at 1900 ± 300 µM; in data set [2] (0.6 mM GTP), 1500 ± 200 µM. Besides, the values for the kcat in data set [1] (0.6 mM GTP) and in data set [2] (0.6 mM GTP) were 0.18 ± 0.02 s⁻¹ and 5.3 ± 0.2 s⁻¹, respectively.

As a reminder, the Km is the concentration of substrate that gives half-maximal velocity. Broadly, the kcat is the maximal rate divided by the concentration of active sites.
